{"source": "patent US20190153112A1", "about": "(IMMUTEP S A S, published 2019)", "binders": {"B1": {"name": "humanized 13E2 monoclonal antibody IMP761 (antibody, human IgG4 S228P, kappa, V domains shown)", "VH": "QITLKESGPTLVKPTQTLTLTCTFSGFSLSTSGMGLGWIRQPPGKTLEWLTHIWWDDIKRYNPDLRSRLSITKDTSKNQVVLTMTNMDPLDTGTYYCARIVEGSYSSSYFDVWGQGTLVTVSS", "VL": "DIVMTQTPSSLSASVGDRVTITCKASQDVIFDVAWYQQRPGQAPKLLIYSASSRVSGVPSRFSGSGSGTDFTLTISSLQPEDFATYYCQQHYSTPYTFGQGTRLDIKR", "notes": "Human IgG4 (S228P) with kappa light chain; also called humanized 13E2 IgG4; VH4/VL3"}, "B2": {"name": "chimeric 13E2-human IgG4 antibody Chim13E2IgG4 (antibody, V domains shown)", "VH": "QVTLKESGPGILQPSQTLSLTCSFSGFSLSTSGMGLGWIRQPSGKGLEWLTHIWWDDIKRYNPDLRSRLTISKDTSSSQIFLKIASVDTADTATYYCARIVEGSYSSSYFDVWGAGTTVTVSS", "VL": "DIVMTQPHKFMSTSVEDRVTITCKASQDVIFDVAWYQQKPGQSPKLLIYSASSRVSGVPDRFTGSGSGTDFTFTISSVQAEDLAVYYCQQHYSTPYTFGGGTTLEIKR", "notes": "The light chain is the 13E2 VL with wild-type human kappa; also called chimeric 13E2 IgG4; heavy chain 13E2IgG4mut"}}, "target": "T1, IMP321 (recombinant soluble human LAG-3Ig fusion protein) (human, UniProt P18627 23-450)", "T1 construct": "extracellular domain; also called sLAG-3Ig; LC1", "T1 sequence (looked up)": "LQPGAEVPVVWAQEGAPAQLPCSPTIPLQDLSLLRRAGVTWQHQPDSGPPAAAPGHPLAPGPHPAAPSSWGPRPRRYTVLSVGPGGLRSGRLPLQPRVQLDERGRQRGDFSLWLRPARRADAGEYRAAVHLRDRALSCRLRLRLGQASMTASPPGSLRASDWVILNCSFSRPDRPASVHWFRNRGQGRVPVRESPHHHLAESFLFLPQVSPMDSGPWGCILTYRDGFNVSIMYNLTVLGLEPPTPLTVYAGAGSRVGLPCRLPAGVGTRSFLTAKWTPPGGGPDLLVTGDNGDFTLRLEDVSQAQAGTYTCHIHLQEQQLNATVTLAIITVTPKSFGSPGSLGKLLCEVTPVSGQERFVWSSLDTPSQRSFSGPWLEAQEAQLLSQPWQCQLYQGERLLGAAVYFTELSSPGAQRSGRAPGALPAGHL", "assay": "Biacore T200 SPR, antibody immobilized on C1 chip, IMP321 0.078-2.5 nM as analyte, 25 °C, 1:1 fit, average of three runs", "method": "A Biacore™ surface plasmon resonance analysis was performed using the chimeric antibody Chim13E2IgG4 (comprising the chimeric heavy chain 13E2IgG4mut, and the chimeric light chain 13E2IgK, described in Example 17), or the humanized 13E2 antibody (IMP761) described in Example 18, covalently immobilized to a C1 sensor chip. The coating was performed in 10 mM sodium acetate, pH 5.0, to reach 13±1 RU. The recombinant human LAG-3Ig protein (IMP321) was then passed over the captured antibodies at 6 different concentrations, ranging from 0.078-2.5 nM, in analysis buffer (10 mM HEPES pH 7.4, 150 mM NaCl, 3 mM EDTA, 0.05% Tween 20) at 25° C., with regeneration in every cycle. The analysis was carried out on Biacore™ T200 and the data was fitted using the kinetic global fit (Langmuir 1:1) model. The kinetics parameters are recorded in Table 29, and represent the average of three runs."}
{"binder": "B1", "values": [{"measurement": "Kd", "result": 0.0228, "unit": "nM"}, {"measurement": "koff", "result": 0.00066, "unit": "s⁻¹"}, {"measurement": "kon", "result": "2.9e+07", "unit": "M⁻¹ s⁻¹"}]}
{"binder": "B2", "values": [{"measurement": "Kd", "result": 0.0219, "unit": "nM"}, {"measurement": "koff", "result": 0.00064, "unit": "s⁻¹"}, {"measurement": "kon", "result": "2.9e+07", "unit": "M⁻¹ s⁻¹"}]}
